Laboratory results as given in patent publication US8620595B2, “Methods for determining the retention of peptides in reverse phase chromatography using linear solvent strength theory” (University of Manitoba, priority 2010, dated 2013).

Experiment: Isocratic elution measurement of slope S (log k vs. φ plots), RP-HPLC with UV detection
Format: physicochemical
Settings: Luna C18(2) column, water/acetonitrile with 0.1% formic acid, 22-23° C.
Experimental: Chromatography. All chromatographic experiments were conducted at a controlled temperature of 22-23° C. For isocratic measurement of the slope values, a micro-Agilent 1100 Series system (Agilent Technologies, Wilmington, Del.), was used with a 1 mm×100 mm 5 μm Luna C18(2) (Phenomenex, Torrance, Calif.) column and a UV detector operated at 214 nm. Both eluents A (water) and B (acetonitrile) contained 0.1% formic acid as ion-pairing modifier. Stock solutions of the 11 standard peptides (˜1 mg/ml) were prepared by dissolving each peptide in 1 ml of 0.1% FA in water or a 20% acetonitrile solution. Ten microliters of sample was injected. Individual peptides were diluted to provide ˜0.5-1 μg injection of each component using a 10 μl loop. The dead volume of the column and connecting tubings was determined by injecting a non-retained compound (water) and measuring the elution time of the negative peak at a 150 μL/min flow rate. Retention factors for isocratic elution were calculated using the formula: k=(tR−t0)/t0c; where tR is the retention time, t0 is the system (column and tubings) dead time, and t0c is the column dead time. Additional details of measuring S-values via constructing log k vs. φ plots are provided elsewhere.^24 The nano-LC MS/MS experiments were conducted using splitless Tempo LC system (Eksigent, Dublin, Calif.) with 20 μL sample injection via a 300 μm×5 mm PepMap100 (Dionex, Sunnyvale, Calif.) trap-column and a 100 μm×200 mm analytical column packed with 5 μm Luna C18(2) (Phenomenex, Torrance, Calif.). Tryptic digests of the mixtures were spiked with calibrating peptides (see Table 1) as described above, injected on the trap-column using buffer A as a carrier and separated using 0.1875, 0.375 and 0.75 percent acetonitrile per minute linear gradients starting from 0.5% acetonitrile at 500 nL/min flow rate. The composition of both eluents A and B was identical to one described above for normal-flow system. Gradient programs consisted of a 0.5-40% linear increase of buffer B in 213.2, 106.6 and 53.3 minutes, respectively. After each run the gradient columns were washed with 80% B for 3 minutes and equilibrated with the starting A:B ratio for 18 minutes.
Accordingly, for the determination of S-values of the set of synthetic peptides we used an isocratic elution procedure, despite it being extremely labor intense.^23 Isocratic measurements consist of determining retention times of peptides at several constant acetonitrile concentrations and plotting experimental Eqn. 1 for each peptide.
These two ways of measurement have been combined to provide a highly accurate and fast way of determining S for an extensive sets of peptides (see FIG. 3). First, precise isocratic measurement of S is performed in normal flow conditions with UV detection for a set of synthetic “S-calibrating” peptides. Similar to the previously described peptide mixture P1-P6 designed to cover wide range of hydrophobicities, these peptides were chosen to cover wide range of S-values (Table 1). Second—a tryptic digest of the bovine proteins mixture (model mixture) is spiked with the “S-calibrating” peptides and run under two different gradient slopes in nano-flow RP-HPLC MS: 0.75 and 0.1875% acetonitrile per minute in our case. Third—retention times are assigned for all identified species. Fourth—retention time shifts in acetonitrile percentage (ACN %) units relative to P3 were determined as: Δ=(tR 0.75−tRP3 0.75)*0.75−(tR 0.1875−tRP3 0.1875)*0.1875 (3); where tR 0.75 and tRP3 0.75 are the retention times of any peptide and reference P3 at 0.75% per minute, and tR 0.1875 and tRP3 0.1875 are the retention times of any peptide and reference P3 at 0.1875% acetonitrile per minute gradient, respectively. Fifth—an experimental Δ vs. S curve was plotted for S-calibrating peptides (FIG. 3). Sixth—S values were extracted from this dependence for all peptides observed in both nano-RP-HPLC MS runs by extrapolation of experimental Δ on this plot.
For “LLLLDFR [Peptide 4, synthetic S-calibrating peptide]”, the “Slope (S in the basic LSS equation)” value was 21.78.
With “LLLLLDFR [Peptide 5, synthetic S-calibrating peptide]” the “Slope (S in the basic LSS equation)” value was 22.76.
In the case of “LLSLADFG [Peptide 8, synthetic S-calibrating peptide]”, the “Slope (S in the basic LSS equation)” value is reported as 19.2.
